Assay: soluble on expression in E. coli; label from the status in PepcDB or PDB records

Soluble on expression in E. coli, not soluble:
MGSDKIHHHHHHMARFMGSETEYGISTPSAPFLSPIVTSTHAVVAYSTARGFGEHRVRWDYAQESPLRDTRGFDLRRYHQAPVVDPHAIGVANVFVPNGARFYVDHAHPEYSSPEVTNAWDAMVYDAAGDHILMQAVSDVASFTSQNRSVLDGHDPCPALKIYKNNVDGKGASYGSHENYLYSRETDFDVLAQALIPFFVCRQVIIGAGRVGLGPQGDKPGFQVSQRADYIEQEISLETTLNRGIINTRDEPHTDADHWGRLHVIIGDANMSQTANFLKFGMTSLVLDAIEAGVDFSELKLKNAVSEVAKVSHDLSLTHQLRLADGSELTAIDILRRYLDKVQPFAETPVEQRVTALWGEVLGLLENDLLSTSHLLDWTAKLALIKSFEARGLSINDPKMYLIDLQYSDIDPQKSLYHALVSKGRMKTLCSAQDIADAAATPPQDSRAYFRGRVMDKFGESVLAANWESLIVATSSAKEYRVHTSGLDTLTREEAGELVEKSATIDELIEGLEKENLTPLTAIQAI, MGSDKIHHHHHHMASNITGFELFKSNPNWQELPDSFWEFCSAHGRVRHYAAKQFLFFFGEESNSVYFLLKGRIQILLMSEFTEKIFRILQPPAFFPEVVLDSKTYPYAALTAEASDVFVLDRKALVQYFKENPSTLLPFYQNMALDLRRAYRQIKNIALGDARSRLGAKLFALAHVHGQETPEGILITVPLTATELAGMCSLARESVSRILSELRDLGILKMEKKQITISDLEQLRSWIHERQNSL, MGSDKIHHHHHHMASRLPPLNALRAFDASARQLSFTRAAEELFVTQAAISHQIKSLEDHLGIKLFMRKNRALLLTEEGQSYYLDIKDIFTSLHEATERLLARGAKGAITVSSQASFAIQWLVPRLTAFNSLHQDIDVRIKAVDQPENSLTEDVDIAIYYGRGRWPNIHADKLHTEYLIPVCSPLLVQENAANGKPPLLTLEDLSEHTLLHDTSRKDWKRWFKQVGVKGANVNHGPIFSHSAMVLQAALHGQGIALAYSVLAKPDIDSGRLVCPFNDVLVSKNAYFIVCRENQKDIGKITAFREWMLDMVEAEQAQITDGQIS, MGSDKIHHHHHHMATLLLEDGTIESNLDEIARELAPLGVYIKHYDPGTSILFPHLLIQDALTDKEKCHIVDLHNSVFEFIQQENGYLWCDLLNVHPGSPNLQTLIATYAKYHTHTAPEALYVLAGEMIFGFVKPDGSQVQLLVQSQDYLHIPSGVEHWCSLTASLSFKAVRYFTAADGWVPNYTGTQLNDSLNK, MGSDKIHHHHHHMATLSDFNRDGKRYVALNGVGDDQDQSILFDHVSSYDLIRSFVDANCNWSRVLESRKNQWKPSILPEADGLAYNPPGKPEDIRNCTVSAFGNTHKTINNSLSSQKDVDWFYKGNGTTVIGTDHPLISNLNSYGCGIEIEYAAVFMINAAGDPVYIGYTIANDFSDAEMRRRMPSLANLSKLATTSFGRFLFLAPIPTKTEIACTILRHGKPAWRVNGQLGSEAMKYSFSYLNELLFQNQSIKGDAYTIHYMLLGASISSNKAEFDMKHSDIILVHDEDNNVILRNEYIDEAIVCACC, MGSDKIHHHHHHMATLSRLFIHPVKSMRGIGLTHALADISGLAFDRIFMVTEPDGTFITARQFPQMVRFTPSPLHDGLHLTAPDGSSALVRFTDFTPQDAPTEVWGNHFTARVAPTAINQWLSGFFSRDVQLRWVGPQLTRRVKRHNAVPLGFADGYPYLLTNEASLRDLQQRCPAGVQMEQFRPNLVVSGVAAWEEDSWKVLRIGDVIFDVVKPCSRCIFTTVSPEKGQKHPSGEPLATLQAFRTALDNGDVDFGQNLIARNSGVIRVGDEVEILATAPAKAYGATTVDNSVTPEKHPDASVTIDWQGQTFCGNNQQVLLEQLENQGIRIPYSCRAGICGCCRIRLLEGEVSPLKKSAMGDDGTILSCSCVPKTALRLEN, MGSDKIHHHHHHMAVVDEAKLRYLDFLSREDRVRHHRYVEEMKQYDMMRSGDINAIAESTRLWNSGLYGYLSDDPLKNAKYRFVTTITLATRFAIEGGMDEEDAYNASDLYIQNLENCKTPDDVRRLHTDMMTFFTWAMADMQKAETHSKAVNECLDYIHYHLHEKITVPILAEHVHLNPTYLSELFKRETGTAISQYITDKRMEAAENMLKYSEYSFDEIAQILAYRSQSHFSKVFKKHSGMTPGEYRTKYAQNGIWPE, MGSDKIHHHHHHMCEISVVMPVYNAEMHIKDAIESVLEQSFVDFEFILIDDGSTDHTSSIIQSYNDKRVRLIQNSHNFIESLNLGIENSLGKYMARMDGDDIMHIDRLKIQYAIMQEYPDVTVCGTWMNSIGTYSQTNGLLSTLSGWVEQPLLKFTKGNFLFHPTTMIRMDFLKKNALKYENYPYAEDFKFWVEIAKSGGRFYIDSQPLLYYRISDSQVSSQKSSEQRATTESIINEVLEYLMELNKNEYPELAAAYGDLCKLYEKQLLTKCEVLTLFQTLFSKNEKKLNL, MGSDKIHHHHHHMCVKKGESSITSLVSAFGRAYHSEFDSPKIFDDYVAKEFISPKERSDIETNMVQGIHFFNTDIAEQFQDNPKEILKWITQVQLSPTPLARAAYCERVLLHEITLGAKQYVILGAGLDTFSFRHRELENKIEIFEVDHPSTQQFKKERIKEAELEVPNNLHFVSMDFTKGFSYEQLRNEGFEHKKTFFSLLGVSYYLTKEELASLIECLFEMVPEGSSIVFDYPDENLFTEKGLSNRVENMVKMAAVGGEPMKSCYSYAEMEALLEKAGLLIYEHLSPEDINAFYFEGRNDYLKAFETVHYVHAVKK, MGSDKIHHHHHHMCYTPACLFSRVLHSSTRWRGGRVVECVALEKRSTRKGTVGSNPTLFAKKEAPRPAQQAGFSFVDSVSQVSGAAIVQPMTRFAWTPETIPWQETAPDGTRYALLEGVREAGTFTYAFFLPAGFWDEAHWHSTDARVFVMQGELRLGYGDRLDKEAATSYPAGSALLVPAEHRHHDGAEVDTLILGVASGSWFTRYVNSANQGSAGTV, MGSDKIHHHHHHMDAPSRSHLASPILVANYRSLPSFMYRDSLPEAAVSPQLLALNTRLLETLEQDLAWFNSSDALEQLSGKTYYGSNLPFALAYSGHQFGGWSPVLGDGRAHVLGQLKTAADELIDVQLKGSGATPFSRGGDGRATLGAVIREYLLSEAMAGLNISTTGSLAVIATGEDVWRNGAYPGAILVRTAKSHLRVGSFQYAAVHQGPEAVKTLADFALAQYYPELSHDENPYQALLAQVIKGQAELVAQWMLVGFIHGVMNTDNSSITGETIDYGPCAFMDEFNPNKVFSSIDSQGRYAWGNQGAIAQWNMARLGETLLPLLDSDEAKALEIAQAQLGDFNRLFAEHFYQGMARKLSLDASDPELIPFVDSTLQLMTNTRVDFCQFFNALTEYHSTHREQDAGLVALFSTEAFPSLSSTPAQLLQDWLSQWQAKACDSQAALAAMIKANPKFIARNHKVEAAISAAEQNNDYSLFLDMARVLANPYVLAEQDKHYQDAPTPDQRVKQTFCGT, MGSDKIHHHHHHMDARSLISLIPSLSAYKWYGKVTRVIGLTIEAKGPQASIGELCYILVGKQGTKVMAEVVGFKEERVLLMPLNGTAEIAPGSLVEGTGRPLQVKVGYSLIGHVIDGCGRPLTGEALPNGLTPYPTDNPPPNPISRPRIKEAMHLGVRAIDGLLTVGKGQRVGIFAGSGVGKSTLLAMLAKNAAADLNIIALIGERGREVKDFIERDLGEDGLRRSIIVVATSDQPALMRIKGAMTATALAEYFRDQGLHVNLMMDSVTRFAMAQREIGLAVGEPPTTKGYTPSVFALLPKLLERAGTNGKGSITGFYTVLVDGDDLNEPISDTVRGILDGHFVLDRELANKGHYPAINILKSVSRVMNDIVTDEQKRAAEHVRSLLSVYKESEDLINIGAYKRGSSKQIDEAIERQPEVISFLRQNTDEVAIAEHSIQQLIQAFGKGD, MGSDKIHHHHHHMDASKNSDFKDTWLVVPCYNEATVIREVLENALKTFPNIVAVNDGSPDNSAEEIHAAGAHLVNHPVNLGQGAAIQTGIEYARKQPGAKYFVTFDADGQHQVKDVIRMVERLRAEDVDIIVGTRFGRPRQADDQVPLIKRLVLRTVVLLSPKTRRLGLTDAHNGLRVFNQKVAQEMNIRMNGMSHASEIVDQIDERGWRISEEPVDILYTEYSMSKGQSLLNGVNILADGFLARRLP, MGSDKIHHHHHHMDDQLNALRDLAIPFPITASFRQQARAYASQYFTQDTHERVYLNTLAVLVANAYFRLLNFQTNLTKAERWNAACRVWSEANEIELVGLGNLECRVITAGQQTIILPPETWADRIGYLFVEITSSEKVATLIGFLPAFDAETSGEEVAISTTGYAYADLKSMDEAMDYLTQQEASARSKTGEIDNLTRDFAAKKITYLRNWLNNVYDSDWEPAMRELSAATCKKKIQLVGQVFEMQLSVSQSNGAITVTVIVRLESGFLPIGIQVSVPDESEIYTETVSTPADLIRIPLEFSPGEEFWVELRWGETFTREYFIA, MGSDKIHHHHHHMDEYNFIVEKLQELGLTKREAEVYLAILMKNGATVKDLLETLDVHQPQLYNIIQSLIRKGFIRASAGRPRVYTANDITALIDVQKMKLDSLKRILQEELGKIRENEGEEPYISYVRSLEGVLASAIETINSAEVEIRAELPYQIYKELSPYFVSALRRGINLYLLVYPTTKSFIELADFKNQIKVKTSELGNFLLIISDLHRAVYSKRRFFTIHKLPISENEVYGYIIHEKDLLLRLLNIHNNLWVKAKEIIGWIPGPEVYPKTFIDFSMALNELEALLRLGYTPIVRVLGRDVKSEYPIEVSGRVRAVNRIGIVSNFILESNEGTFTVGGFDAEIEDIEAQRVIIEKVEREGGKKP, MGSDKIHHHHHHMDFDMIEEKKDSVIVRNVENFELKDIFDCGQCFRWHRQENGNYIGIAFEKVVEVQKIGEDVVIYNINEEEFKNVWSEYFDLYRDYGEIKKELSRDPLLKKSVDFGEGIRILRQDPFEILLSFIISANNRIPMIKKCINNISEKAGKKLEYKGKIYYAFPTVDKLHEFTEKDFEECTAGFRAKYLKDTVDRIYNGELNLEYIKSLNDNECHEELKKFMGVGPKVADCIMLFSMQKYSAFPVDTWVKKAMMSLYVAPDVSLKKIRDFGREKFGSLSGFAQQYLFYYARENNIQL, MGSDKIHHHHHHMDGSLNGETWRFIVRNIRIGVVEDDPASCQLVLDYLNRYQSETGEQFTVSVFDDGARIVEKYAPVYDILLLDIEMKEIDGMAAARRIRERDDNVVIIFITAAPQYAISGYEVRALSYLLKPLPWFAFSQELKKSIDMVRRNGDDSMLIETGKGQMRMNLTDILYLESIRHTIVIHTLDGKYSINGTLKDMEAKLADRHFFRSNSCYLVNLKHVTGVADQDCIMSDDERLRVSRPRKKAFLAALADYMGGGR, MGSDKIHHHHHHMDINFEYYKIFYYVAKYCNFTKAARALGNSQPNVTRAMNNLEQQINSILFIRNNRGVQLTPEGERLYAHVSAAMSQILAAEEELSDSIGLSHGSVSIGASETALNIYLLDRLKPFHMAYPGIRLKIYNHSTPQAINAVKNGMIDFAVVSTPAEVEAPLKMIKLGSFQEILVGGTTFTALGSQTLSLKELHNYPLIGLGRETMTFQFFNRLFMSHGLEFAPDTETATTDQILPLVKSELGLAFMPKPMAEAAIANREIVEIALEEEIPQRNICMVYDIHQPISAAARELKKVISDSHKV, MGSDKIHHHHHHMDKELDLAVTCYGKVKPLKYDLVLLPWGATEPHNLHLPYLTDCILSHDIALDAAKLAKTHYGIRCMVMPYVTAGSQNPGQRELDFCIHYRYETQKAILSDLVASLYAQGYRKMVIINGHGGNTFKSMIRDLSLDYPDFLIASSEWFAFIPAKEYFDEPGDHADELETSVMMHYHPELVNLDEAGDGNYKKFASQMLNEKVAWIPRNWQNVSQDTGIGNPKKASAGKGKKYAEAVVAKYALLFEELVHKELY

Source: the DeepSol protein solubility set
